Where two headings read alike, the source gives them in different places.
Experiments:
CELF1 RRM1-2 [1] = molecular target: T1, CELF1 RRM1-2 (UniProt Q92879 1-187); experiment: EMSA
CELF1 RRM1-2 [2] = molecular target: T1, CELF1 RRM1-2; experiment: CG-MALS
TDP43 RRM1 [3] = molecular target: T2, TDP43 RRM1 (UniProt Q13148 101-192); experiment: CG-MALS
TDP43 RRM1 [4] = molecular target: T2, TDP43 RRM1; experiment: CG-MALS; remark: listed apart in the source

T1 sequence (Q92879 1-187): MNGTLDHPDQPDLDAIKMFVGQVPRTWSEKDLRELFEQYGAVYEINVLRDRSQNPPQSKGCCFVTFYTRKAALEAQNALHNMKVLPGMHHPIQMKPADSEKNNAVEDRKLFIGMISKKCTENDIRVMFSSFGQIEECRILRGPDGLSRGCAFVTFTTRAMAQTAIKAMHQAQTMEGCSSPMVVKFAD
T2 sequence (Q13148 101-192): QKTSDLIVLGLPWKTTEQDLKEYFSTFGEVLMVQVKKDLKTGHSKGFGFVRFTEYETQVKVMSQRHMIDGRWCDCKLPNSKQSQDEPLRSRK

Binder: UGUUUGUUUGUUUGUU (ssRNA) [(UGUU)4 ssRNA]
- binding result (CELF1 RRM1-2 [1]): binds

Binder: GUGUGUGUGUGUGUGUGUGUGUGUGUGUGUGUGUGUGUGUGUGU (ssRNA) [(GU)22 ssRNA]
- Kd (CELF1 RRM1-2 [2]): 0.39 ± 0.03 µM

Binder: GTGTGTGTGTGTGTGTGTGTGTGT (ssDNA) [(GT)12 ssDNA]
- Kd (TDP43 RRM1 [3]): 1.34 ± 0.12 µM

Binder: TGTGTGTGTGTG (ssDNA) [(TG)6 ssDNA]
- Kd (TDP43 RRM1 [4]): 10.4 ± 3.2 µM

Source: paper PMC11447847
